Laboratory results: patent US20110015120A1, “Pharmaceutical and cosmetic compositions including lactoferrin, ciclopirox, etidronic acid” (VALETUDO S . r . l ., priority 2009, published 2011)
Several values for one entry are separate records, joined by “and”; a condition that tells them apart may be missing. Equal values may be shown once.

Test system: MALASSEZIA GLOBOSA
Assay: Inhibition of Malassezia globosa growth, colony count (UFC/ml) on Dixon's Agar
Format: cell-based
Settings: for dil 10X colony count: 200 μl of suspension diluted 10X on Petri dish; for dil 10X colony count / X50 (calculation made based on the dilution): three replicates; for AVERAGE: average of three replicates; for % reduction of Malassezia globosa cells growth (% increase of antimycotic activity): compared to CICLOPIROXOLAMINE alone; for X50 (calculation made based on the dilution): dil 10X count x50
Experimental: To assess the capacity of the LACTOFERRIN to enhance the antimycotic action of the CIPROPIROXOLAMIN, a suspension of a MALASSEZIA GLOBOSA STRAIN is inoculated on a specific culture medium and the capacity of the compounds to inhibit the mycotic growth is observed, by counting of the UFC/ml.
As first approach, the two compounds are tested at the concentration of 1:500 and, subsequently, diluted in culture medium at 2 decreasing concentrations (10× and 100×) in order to visualize the individual activities. Then in order to evaluate the capacity of the LACTOFERRIN to increase the antimycotic effect of the CICLOPIROXOLAMIN, the same test was carried out on the mix of the two active ingredients at different ratios (1:2 and 1:5).
Each test was performed three times and the incubation times were 1 and 4 hours respectively.
Based on the results obtained, the best dilution for the execution of the tests was the 10× dilution and both the incubation times (1 hour and 4 hours) were taken into consideration since the experimental conditions permitted an accurate count to be carried out of the colonies on the Petri dishes.
The microorganism used is MALASSEZIA GLOBOSA.
The microorganisms were cultured in specific culture medium (Dixon's Agar) until reaching a concentration of approximately […] per ml. Aliquots of 1 ml of this inoculum were then taken to which were added respectively: • Ciclopiroxolamine 1:500 • Lactoferrin 1:500 • Mixture 1:2 Ciclopiroxolamine:lactoferrin • Mixture 1:5 Ciclopiroxolamine:lactoferrin
As positive control, the untreated inoculum was used (MALASSEZIA and diluting liquid), as negative controls the two active ingredients in diluting liquid.
After incubations of 1 hour and 4 hours respectively, aliquots of 200 μl of each suspension were spread on Petri dishes.
For each treatment, the test was carried out three times and for 3 different dilutions (non diluted suspension (TQ), dilution 10× and dilution 100×).
The 54 dishes obtained were then examined, after incubation of 5-6 days and the microbial load of each specimen was calculated (UFC/ml).
The % increase of the antimycotic property corresponds to the % reduction of the growth of Malassezia Globosa

B1: Lactoferrin (protein, UniProt P02788 20-710, looked up)
Lactotransferrin: GRRRSVQWCAVSQPEATKCFQWQRNMRKVRGPPVSCIKRDSPIQCIQAIAENRADAVTLDGGFIYEAGLAPYKLRPVAAEVYGTERQPRTHYYAVAVVKKGGSFQLNELQGLKSCHTGLRRTAGWNVPIGTLRPFLNWTGPPEPIEAAVARFFSASCVPGADKGQFPNLCRLCAGTGENKCAFSSQEPYFSYSGAFKCLRDGAGDVAFIRESTVFEDLSDEAERDEYELLCPDNTRKPVDKFKDCHLARVPSHAVVARSVNGKEDAIWNLLRQAQEKFGKDKSPKFQLFGSPSGQKDLLFKDSAIGFSRVPPRIDSGLYLGSGYFTAIQNLRKSEEEVAARRARVVWCAVGEQELRKCNQWSGLSEGSVTCSSASTTEDCIALVLKGEADAMSLDGGYVYTAGKCGLVPVLAENYKSQQSSDPDPNCVDRPVEGYLAVAVVRRSDTSLTWNSVKGKKSCHTAVDRTAGWNIPMGLLFNQTGSCKFDEYFSQSCAPGSDPRSNLCALCIGDEQGENKCVPNSNERYYGYTGAFRCLAENAGDVAFVKDVTVLQNTDGNNNEAWAKDLKLADFALLCLDGKRKPVTEARSCHLAMAPNHAVVSRMDKVERLKQVLLHQQAKFGRNGSDCPDKFCLFQSETKNLLFNDNTECLARLHGKTTYEKYLGPQYVAGITNLKKCSTSPLLEACEFLRK
Log (AVERAGE) (period of incubation 1 hour): 4.13
dil 10X colony count (period of incubation 1 hour): 303 and 256 and 250
AVERAGE (period of incubation 1 hour): 13483.33 UFC/ml
% reduction of Malassezia globosa cells growth (% increase of antimycotic activity) (period of incubation 1 hour): −39.4%
X50 (calculation made based on the dilution) (period of incubation 1 hour): 15150 UFC/ml and 12800 UFC/ml and 12500 UFC/ml
Log (AVERAGE) (period of incubation 4 hour): 4.109
dil 10X colony count (period of incubation 4 hour): 340 and 232 and 200
AVERAGE (period of incubation 4 hour): 12866.67 UFC/ml
% reduction of Malassezia globosa cells growth (% increase of antimycotic activity) (period of incubation 4 hour): −695.8%
X50 (calculation made based on the dilution) (period of incubation 4 hour): 17000 UFC/ml and 11600 UFC/ml and 10000 UFC/ml
